Results reported in article PMC6125642.
pKd: −log10 of the molar value.

Molecular target: FITC-labeled aP-C18 peptide (not stated (P. horikoshii and P. furiosus aP1 were both used))
Assay: fluorescence polarisation

| Substance | pKd |
| --- | --- |
| aABCE1 A223S (enzyme) | 4.33 |
| aABCE1 I170S (enzyme) | 4.17 |
| aABCE1 R227A (enzyme) | 4.51 |
| aABCE1 V174S (enzyme) | 4.08 |
| aABCE1 V219S (enzyme) | 5.20 |
| aABCE1-ΔN74 (domain or fragment) | 5.36 |
